B2: GST-tagged SRC-1 RID (Receptor Interaction Domain of hSRC-1, amino acids 614-764) (other, not shown: a dimerising Fc or GST)
chain: HNNDRLSDGDSKYSQTSHKLVQLLTTTAEQQLRHADIDTSCKDVLSCTGTSNSASANSSGGSCPSSHSSLTERHKILHRLLQEGSPSDITTLSVEPDKKDSASTSVSVTGQVQGNSSIKLELDASKKKESKDHQLLRYLLDKDEKDLRSTP
notes: also called GST-SRC-1 RID; RID of SRC-1

Columns and labels:
ERRα = biological target: T1, ERRα (Homo sapiens, UniProt P11474); conditions: micromolar concentrations; Yang and Chen (1999); cited from earlier work
T1 sequence (P11474 1-423): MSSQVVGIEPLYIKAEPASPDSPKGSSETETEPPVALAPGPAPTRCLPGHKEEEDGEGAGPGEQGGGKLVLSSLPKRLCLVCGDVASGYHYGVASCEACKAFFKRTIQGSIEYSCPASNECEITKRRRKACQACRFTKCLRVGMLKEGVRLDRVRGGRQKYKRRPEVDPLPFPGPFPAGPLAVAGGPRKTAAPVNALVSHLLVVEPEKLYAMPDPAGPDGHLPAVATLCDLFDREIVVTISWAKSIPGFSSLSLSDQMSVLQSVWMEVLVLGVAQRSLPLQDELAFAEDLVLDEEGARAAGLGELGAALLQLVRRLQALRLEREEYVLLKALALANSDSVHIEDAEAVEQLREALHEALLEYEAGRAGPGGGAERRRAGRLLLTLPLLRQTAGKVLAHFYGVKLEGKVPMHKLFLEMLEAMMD

[1] = biological target: T2, His-tagged ERR3 LBD (wild type; residues 229 to 458 of the Estrogen-Related Receptor 3) (human (human and murine receptor are …, UniProt P62508 229-458); experiment: crystal structure
T2 construct: Expressed in E. coli BL21(DE3); Forms a homodimer in the crystal, in gel filtration and in mass spectrometry; SwissProt O75454 is printed for hERR3; also called wt LBD; wt ERR3; not shown: hexahistidine tag from vector pET-15b
T2 sequence: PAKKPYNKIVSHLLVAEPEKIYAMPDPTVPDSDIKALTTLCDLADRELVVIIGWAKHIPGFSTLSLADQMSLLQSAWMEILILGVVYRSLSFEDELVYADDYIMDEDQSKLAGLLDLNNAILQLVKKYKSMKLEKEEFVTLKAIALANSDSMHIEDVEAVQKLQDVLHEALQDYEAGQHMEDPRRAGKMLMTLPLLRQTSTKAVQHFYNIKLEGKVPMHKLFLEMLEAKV
Text: A.2 Protein Purification, Crystallization, Data Collection and Processing.

[2] = biological target: T3, His-tagged ERR3 LBD mutant A272L (human (human and murine receptor are …, UniProt P62508 229-458)); experiment: native polyacrylamide gradient gel, no ligand
T3 construct: also called ERR3(A272L); ALA272LEU; not shown: hexahistidine tag from vector pET-15b
T3 sequence: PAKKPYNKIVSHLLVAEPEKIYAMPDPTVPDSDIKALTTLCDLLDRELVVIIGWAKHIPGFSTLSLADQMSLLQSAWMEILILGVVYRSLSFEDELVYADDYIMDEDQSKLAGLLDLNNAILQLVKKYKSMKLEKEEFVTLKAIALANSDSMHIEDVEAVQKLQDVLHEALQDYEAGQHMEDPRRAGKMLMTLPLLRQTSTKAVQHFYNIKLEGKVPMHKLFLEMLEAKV
Description: (§1) After purification the proteins were dialyzed in assay buffer (20 mM Tris.HCl pH 8.0, 200 mM NaCl), and concentrated. […] Protein complexes were resolved on native polyacrylamide gradient gels (8%-25%) using the Phast System (Pharmacia).
(§2) In vitro interaction assays with the RID (amino acids 617-764) of the coactivator SRC-1 has first been performed. […] Complexes were separated on native polyacrylamide gradient gels.

[3] = biological target: T2, His-tagged ERR3 LBD (wild type; …); experiment: native polyacrylamide gradient gel, no ligand
Description: as §1, §2

[4] = biological target: T4, His-tagged ERR3 LBD mutant L345I (human (human and murine receptor are …, UniProt P62508 229-458)); experiment: native polyacrylamide gradient gel, no ligand
T4 construct: not shown: hexahistidine tag from vector pET-15b
T4 sequence: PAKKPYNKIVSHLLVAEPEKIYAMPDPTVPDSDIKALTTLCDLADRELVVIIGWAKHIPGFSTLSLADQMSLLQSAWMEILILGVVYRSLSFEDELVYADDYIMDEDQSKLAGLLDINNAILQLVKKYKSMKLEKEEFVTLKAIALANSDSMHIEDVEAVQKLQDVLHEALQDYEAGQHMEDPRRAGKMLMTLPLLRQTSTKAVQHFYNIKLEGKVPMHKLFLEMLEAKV
Description: as §1, §2

[5] = biological target: T5, His-tagged ERR3 LBD mutant F435L (human (human and murine receptor are …, UniProt P62508 229-458)); experiment: native polyacrylamide gradient gel, no ligand
T5 construct: also called ERR3(F435L); PHE435LEU; not shown: hexahistidine tag from vector pET-15b
T5 sequence: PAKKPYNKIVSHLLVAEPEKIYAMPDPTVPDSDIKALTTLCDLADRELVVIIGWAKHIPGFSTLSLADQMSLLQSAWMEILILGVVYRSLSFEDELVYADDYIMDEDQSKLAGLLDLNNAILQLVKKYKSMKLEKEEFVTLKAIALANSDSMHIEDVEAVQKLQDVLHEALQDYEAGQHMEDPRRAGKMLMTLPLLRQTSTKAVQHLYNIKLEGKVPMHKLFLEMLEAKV
Description: as §1, §2

[6] = biological target: T6, His-tagged ERR3 LBD mutant A272F (human (human and murine receptor are …, UniProt P62508 229-458)); experiment: native polyacrylamide gradient gel, no ligand
T6 construct: also called ERR3(A272F); ALA272PHE; not shown: hexahistidine tag from vector pET-15b
T6 sequence: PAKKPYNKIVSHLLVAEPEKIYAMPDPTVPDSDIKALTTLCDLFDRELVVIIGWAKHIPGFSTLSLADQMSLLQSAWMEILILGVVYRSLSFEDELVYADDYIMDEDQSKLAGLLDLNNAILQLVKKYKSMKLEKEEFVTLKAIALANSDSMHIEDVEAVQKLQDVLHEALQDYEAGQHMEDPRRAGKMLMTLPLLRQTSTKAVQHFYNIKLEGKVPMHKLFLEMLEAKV
Description: as §1, §2

[7] = biological target: B2; experiment: native polyacrylamide gradient gel, no ligand
Description: as §1, §2

ClC1=C(Cl)C2(Cl)C3C(Cl)C(Cl)CC3C1(Cl)C2(Cl)Cl (stereo not shown) [chlordane]
ERRα basal activity (ERRα): decrease

CC1(C)C(C(Cl)Cl)C2(Cl)C(Cl)C(Cl)C1(Cl)C2(Cl)Cl (stereo not shown) [toxaphene]
ERRα basal activity (ERRα): decrease

B1: hSRC-1 peptide (SRC-1 NR box 2, amino acids 686-700) (peptide)
peptide: RHKILHRLLQEGSPS
notes: Contains the second LXXLL motif of the RID of SRC-1; also called SRC-1 NR box 2 peptide
binding result [1]: binds

B2
binding result [2]: binds
binding result [3]: binds
binding result [4]: binds
binding result [5]: binds
binding result [6]: binds

B3: His-tagged ERR3 LBD mutant L345I-F435L (receptor)
chain: PAKKPYNKIVSHLLVAEPEKIYAMPDPTVPDSDIKALTTLCDLADRELVVIIGWAKHIPGFSTLSLADQMSLLQSAWMEILILGVVYRSLSFEDELVYADDYIMDEDQSKLAGLLDINNAILQLVKKYKSMKLEKEEFVTLKAIALANSDSMHIEDVEAVQKLQDVLHEALQDYEAGQHMEDPRRAGKMLMTLPLLRQTSTKAVQHLYNIKLEGKVPMHKLFLEMLEAKV
notes: not shown: hexahistidine tag from vector pET-15b
binding result [7]: binds

B4: His-tagged ERR3 LBD mutant L345I-F435L-F450L (receptor)
chain: PAKKPYNKIVSHLLVAEPEKIYAMPDPTVPDSDIKALTTLCDLADRELVVIIGWAKHIPGFSTLSLADQMSLLQSAWMEILILGVVYRSLSFEDELVYADDYIMDEDQSKLAGLLDINNAILQLVKKYKSMKLEKEEFVTLKAIALANSDSMHIEDVEAVQKLQDVLHEALQDYEAGQHMEDPRRAGKMLMTLPLLRQTSTKAVQHLYNIKLEGKVPMHKLLLEMLEAKV
notes: also called triple point mutation; not shown: hexahistidine tag from vector pET-15b
binding result [7]: binds
